Data published in the supplement of paper PMC10567573.

B1: MFF (parent)
chain: DDLTVVDAASLRRQIIKLNRRLQL

Variants of: B1
Experiment: protein stability index of a GFP-peptide fusion (GPS, HEK-293T) (PSI 1-6); higher = more stable
Details: c terminus: a fixed tail appended
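Also: lentivirally expressed fusions sorted by FACS into six bins by GFP to DsRed ratio, PSI derived from sequencing read proportions per bin multiplied by bin number.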

Variant | protein stability index
DDLTVVDAASLRRQIIKLNSRLQL [R20S] | 1.96
DDLTVVDAASLRRQIIKLNKRLQL [R20K] | 1.02
DDLTVVDAASLRRQIIKLNQRLQL [R20Q] | 1.85
DDLTVVDAASLRRQIIKLNCRLQL [R20C] | 2.06
DDLTVVDAASLRRQIIKLNTRLQL [R20T] | 2.76
DDLTVVDAASLRRQIIKLNNRLQL [R20N] | 2.4
DDLTVVDAASLRRQIIKLNGRLQL [R20G] | 2.04
DDLTVVDAASLRRQIIKLNERLQL [R20E] | 2.02
DDLTVVDAASLRRQIIKLNWRLQL [R20W] | 1.37
DDLTVVDAASLRRQIIKLNYRLQL [R20Y] | 1.74
DDLTVVDAASLRRQIIKLNMRLQL [R20M] | 2.21
DDLTVVDAASLRRQIIKLNARLQL [R20A] | 1.9
DDLTVVDAASLRRQIIKLNFRLQL [R20F] | 2.43
DDLTVVDAASLRRQIIKLNPRLQL [R20P] | 2.79
DDLTVVDAASLRRQIIKLNIRLQL [R20I] | 2.07
DDLTVVDAASLRRQIIKLNLRLQL [R20L] | 2.37
DDLTVVDAASLRRQIIKLNDRLQL [R20D] | 2.82
DDLTVVDAASLRRQIIKLNVRLQL [R20V] | 1.9
DDLTVVDAASLRRQIIKLNHRLQL [R20H] | 2.26
DDLTVVDAASLRRQIITLNRRLQL [K17T] | 2.47
DDLTVVDAASLRRQIIDLNRRLQL [K17D] | 1.85
DDLTVVDAASLRRQIIVLNRRLQL [K17V] | 1.66
DDLTVVDAASLRRQIIGLNRRLQL [K17G] | 1.99
DDLTVVDAASLRRQIISLNRRLQL [K17S] | 2.76

Variant | protein stability index
DDLTVVDAASLRRQIIYLNRRLQL [K17Y] | 1.89
DDLTVVDAASLRRQIICLNRRLQL [K17C] | 2.44
DDLTVVDAASLRRQIIWLNRRLQL [K17W] | 1.74
DDLTVVDAASLRRQIIQLNRRLQL [K17Q] | 1.57
DDLTVVDAASLRRQIINLNRRLQL [K17N] | 2.2
DDLTVVDAASLRRQIIILNRRLQL [K17I] | 1.85
DDLTVVDAASLRRQIIHLNRRLQL [K17H] | 2.08
DDLTVVDAASLRRQIILLNRRLQL [K17L] | 2.37
DDLTVVDAASLRRQIIPLNRRLQL [K17P] | 3.72
DDLTVVDAASLRRQIIRLNRRLQL [K17R] | 2.24
DDLTVVDAASLRRQIIALNRRLQL [K17A] | 1.01
DDLTVVDAASLRRQIIKLNRRAQL [L22A] | 3.25
DDLTVVDAASLRRQIIKLNRRCQL [L22C] | 1.91
DDLTVVDAASLRRQISKLNRRLQL [I16S] | 1.52
DDLTVVDAASLRRQIPKLNRRLQL [I16P] | 3.66
DDLTVVDAASLRRQIYKLNRRLQL [I16Y] | 2.97
DDLTVVDAASLRRQIQKLNRRLQL [I16Q] | 1.98
DDLTVVDAASLRRQITKLNRRLQL [I16T] | 1.92
DDLTVVDAASLRRQIRKLNRRLQL [I16R] | 3.58
DDLTVVDAASLRRQIIKLSRRLQL [N19S] | 2.38
DDLTVVDAASLRRQIIKLDRRLQL [N19D] | 3.79
DDLTVVDAASLRRQIIKLPRRLQL [N19P] | 2.33
DDLTVVDAASLRRQIIKLYRRLQL [N19Y] | 1.85
DDLTVVDAASLRRQIIKLRRRLQL [N19R] | 1.76

Variant | protein stability index
DDLTVVDAASLRRQIIKLWRRLQL [N19W] | 2.86
DDLTVVDAASLRRQIIKLERRLQL [N19E] | 3
DDLTVVDAASLRRQIIKLQRRLQL [N19Q] | 2.01
DDLTVVDAASLRRQIIKLHRRLQL [N19H] | 1.75
DDLTVVDAASLRRQIIKLKRRLQL [N19K] | 1.94
DDLTVVDAASLRRQIIKLIRRLQL [N19I] | 2.02
DDLTVVDAASLRRQIIKLTRRLQL [N19T] | 2.68
DDLTVVDAASLRRQIIKLFRRLQL [N19F] | 2.16
DDLTVVDAASLRRQIIKLMRRLQL [N19M] | 1.74
DDLTVVDAASLRRQIIKLCRRLQL [N19C] | 3.04
DDLTVVDAASLRRQIIKLVRRLQL [N19V] | 2.25
DDLTVVDAASLRRQIIKLNRSLQL [R21S] | 2.98
DDLTVVDAASLRRQIIKLNRCLQL [R21C] | 1.95
DDLTVVDAASLRRQIIKLNRGLQL [R21G] | 1.84
DDLTVVDAASLRRQIIKLNRDLQL [R21D] | 1.73
DDLTVVDAASLRRQIIKLNRYLQL [R21Y] | 1.94
DDLTVVDAASLRRQIIKLNRLLQL [R21L] | 1.33
DDLTVVDAASLRRQIIKLNRFLQL [R21F] | 2.33
DDLTVVDAASLRRQIIKLNRWLQL [R21W] | 1.91
DDLTVVDAASLRRQIIKLNRHLQL [R21H] | 1.6
DDLTVVDAASLRRQIIKLNRKLQL [R21K] | 1.88
DDLTVVDAASLRRQIIKLNRELQL [R21E] | 1.46
DDLTVVDAASLRRQIIKLNRALQL [R21A] | 1.57
DDLTVVDAASLRRQIIKLNRNLQL [R21N] | 2.46

Variant | protein stability index
DDLTVVDAASLRRQIIKLNRQLQL [R21Q] | 1.84
DDLTVVDAASLRRQIIKLNRPLQL [R21P] | 2.99
DDLTVVDAASLRRQIIKLNRVLQL [R21V] | 1.79
DDLTVVDAASLRRQIIKLNRTLQL [R21T] | 1.91
DDLTVVDAASLRRQIIKLNRMLQL [R21M] | 1.14
DDLTVVDAASLRRQIIKTNRRLQL [L18T] | 2.89
DDLTVVDAASLRRQIIKYNRRLQL [L18Y] | 3.26
DDLTVVDAASLRRQIIKHNRRLQL [L18H] | 3
DDLTVVDAASLRRQIIKCNRRLQL [L18C] | 1.62
DDLTVVDAASLRRQIIKGNRRLQL [L18G] | 2.48
DDLTVVDAASLRRQIIKKNRRLQL [L18K] | 3.31
DDLTVVDAASLRRQIIKSNRRLQL [L18S] | 3.04
DDLTVVDAASLRRQIIKRNRRLQL [L18R] | 3.73
DDLTVVDAASLRRQIIKINRRLQL [L18I] | 3.42
DDLTVVDAASLRRQIIKNNRRLQL [L18N] | 3.39
DDLTVVDAASLRRQIIKDNRRLQL [L18D] | 4.13
DDLTVVDAASLRRQIIKPNRRLQL [L18P] | 3.42
DDLTVVDAASLRRQIIKANRRLQL [L18A] | 1.86
DDLTVVDAASLRRQIIKWNRRLQL [L18W] | 1.84
DDLTVVDAASLRRQIIKVNRRLQL [L18V] | 1.95
DDLTVVDAASLRRQIIKFNRRLQL [L18F] | 3.41
DDLTVVDAASLRRQIIKMNRRLQL [L18M] | 2.38
